Laboratory results reported in patent US20040106545A1 (MCGILL UNIVERSITY, published 2004).
Positions of bridges follow the written chain, without caps; N, C: chain ends.

Columns and labels:
Test in all cases: cell-based or functional assay
[1] = target: T1, chick N-cadherin expressed on transfected 3T3 cells (chick, UniProt P10288 165-912)
T1 sequence (looked up): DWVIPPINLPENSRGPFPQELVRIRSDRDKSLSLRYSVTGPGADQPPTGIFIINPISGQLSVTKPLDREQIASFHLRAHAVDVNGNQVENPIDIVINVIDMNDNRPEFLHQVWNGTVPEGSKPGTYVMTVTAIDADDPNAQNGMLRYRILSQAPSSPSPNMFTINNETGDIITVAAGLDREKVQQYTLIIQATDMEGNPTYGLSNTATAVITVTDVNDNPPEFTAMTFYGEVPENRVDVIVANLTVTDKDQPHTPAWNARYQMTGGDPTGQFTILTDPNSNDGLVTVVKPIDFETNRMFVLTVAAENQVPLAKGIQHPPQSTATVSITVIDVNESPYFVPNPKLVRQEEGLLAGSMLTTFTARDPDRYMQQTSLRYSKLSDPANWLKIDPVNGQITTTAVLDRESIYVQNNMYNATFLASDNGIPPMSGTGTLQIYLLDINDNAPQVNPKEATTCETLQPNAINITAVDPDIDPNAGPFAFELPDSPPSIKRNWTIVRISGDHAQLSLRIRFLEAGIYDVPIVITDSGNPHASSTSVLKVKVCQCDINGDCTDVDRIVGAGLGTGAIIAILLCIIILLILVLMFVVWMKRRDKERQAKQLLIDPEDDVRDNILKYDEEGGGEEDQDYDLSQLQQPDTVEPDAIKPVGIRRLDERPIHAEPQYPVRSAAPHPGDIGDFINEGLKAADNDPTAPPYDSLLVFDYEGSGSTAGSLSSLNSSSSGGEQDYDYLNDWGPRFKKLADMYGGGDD

[2] = target: T1, chick N-cadherin expressed on …; remark: listed apart in the source
[3] = target: T1, chick N-cadherin expressed on …; remark: listed apart in the source
[4] = target: human L1 expressed on transfected 3T3 cells (human, UniProt P32004 20-1257)
[5] = target: T1, chick N-cadherin expressed on …; remark: listed apart in the source
[6] = target: T2, E-cadherin on Madin Darby canine kidney (MDCK) cells (canine (MDCK cells), UniProt F1PAA9 157-885)
T2 sequence (looked up): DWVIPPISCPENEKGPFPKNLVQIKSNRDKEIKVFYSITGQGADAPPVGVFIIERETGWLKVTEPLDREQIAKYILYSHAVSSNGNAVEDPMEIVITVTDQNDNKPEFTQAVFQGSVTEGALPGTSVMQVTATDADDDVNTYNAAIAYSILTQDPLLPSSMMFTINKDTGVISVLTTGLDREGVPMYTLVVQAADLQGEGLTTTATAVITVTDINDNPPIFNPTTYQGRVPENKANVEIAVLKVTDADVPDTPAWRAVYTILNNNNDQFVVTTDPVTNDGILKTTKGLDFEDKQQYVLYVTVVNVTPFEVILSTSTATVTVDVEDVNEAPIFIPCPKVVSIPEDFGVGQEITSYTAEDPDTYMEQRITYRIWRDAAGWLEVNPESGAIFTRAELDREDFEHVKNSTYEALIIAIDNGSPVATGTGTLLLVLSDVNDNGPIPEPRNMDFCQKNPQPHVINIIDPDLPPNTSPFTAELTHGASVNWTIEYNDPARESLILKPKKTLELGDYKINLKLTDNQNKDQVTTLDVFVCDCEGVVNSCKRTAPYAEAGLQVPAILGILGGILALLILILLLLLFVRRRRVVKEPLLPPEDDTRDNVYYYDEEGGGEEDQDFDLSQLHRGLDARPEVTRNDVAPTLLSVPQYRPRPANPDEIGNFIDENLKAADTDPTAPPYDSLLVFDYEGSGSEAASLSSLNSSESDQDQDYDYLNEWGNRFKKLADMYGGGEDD

[7] = target: N-cadherin expressed on transfected 3T3 cells (Examples 2 and 21)

Chain of human L1 expressed on transfected 3T3 cells (P32004 20-1257): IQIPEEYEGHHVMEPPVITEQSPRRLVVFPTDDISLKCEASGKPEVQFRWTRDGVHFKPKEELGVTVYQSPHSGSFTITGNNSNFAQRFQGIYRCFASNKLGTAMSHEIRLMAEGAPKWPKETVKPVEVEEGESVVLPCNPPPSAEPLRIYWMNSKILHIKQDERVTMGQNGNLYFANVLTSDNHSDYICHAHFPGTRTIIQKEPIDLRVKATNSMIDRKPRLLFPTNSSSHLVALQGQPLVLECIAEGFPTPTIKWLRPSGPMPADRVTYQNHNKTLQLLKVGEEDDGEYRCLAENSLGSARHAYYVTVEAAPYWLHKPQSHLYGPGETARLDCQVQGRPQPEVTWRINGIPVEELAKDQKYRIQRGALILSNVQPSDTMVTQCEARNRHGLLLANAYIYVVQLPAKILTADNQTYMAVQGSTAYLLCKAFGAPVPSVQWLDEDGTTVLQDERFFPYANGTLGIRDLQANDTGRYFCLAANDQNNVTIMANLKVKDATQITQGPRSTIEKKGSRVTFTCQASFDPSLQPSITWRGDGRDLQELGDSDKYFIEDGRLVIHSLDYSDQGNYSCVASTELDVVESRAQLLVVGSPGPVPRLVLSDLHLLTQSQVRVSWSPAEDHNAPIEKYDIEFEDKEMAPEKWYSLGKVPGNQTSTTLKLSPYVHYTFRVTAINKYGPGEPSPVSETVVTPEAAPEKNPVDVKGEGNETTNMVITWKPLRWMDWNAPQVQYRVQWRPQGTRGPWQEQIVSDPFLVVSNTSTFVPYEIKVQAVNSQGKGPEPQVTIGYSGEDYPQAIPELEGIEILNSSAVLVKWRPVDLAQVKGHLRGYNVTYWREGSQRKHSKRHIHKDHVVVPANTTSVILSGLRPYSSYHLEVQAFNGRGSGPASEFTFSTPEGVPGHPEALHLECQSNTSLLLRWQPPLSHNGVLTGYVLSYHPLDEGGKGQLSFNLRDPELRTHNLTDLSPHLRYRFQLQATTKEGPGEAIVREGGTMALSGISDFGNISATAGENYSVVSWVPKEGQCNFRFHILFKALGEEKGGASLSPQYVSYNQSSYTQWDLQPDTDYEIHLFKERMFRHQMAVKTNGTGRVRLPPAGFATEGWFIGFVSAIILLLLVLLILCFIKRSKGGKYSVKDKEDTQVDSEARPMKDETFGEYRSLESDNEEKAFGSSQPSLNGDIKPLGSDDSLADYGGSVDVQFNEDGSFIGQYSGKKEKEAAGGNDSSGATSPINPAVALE

In the case of Ac-CHAVC-NH2 (disulfide 1-5 (inferred)) [N-Ac-CHAVC-NH2], the “EC50 for inhibition of the N-cadherin response (neurite outgrowth)” value [1] is reported as 220 µM, the “% inhibition of N-cadherin dependent neurite outgrowth (peptide 250 µg/mL)” value [2] is reported as 68.2% and the “% Inhibition of N-Cadherin Response (peptide 125 µg/ml)” value [3] is reported as 33.2%. For the same binder, the “% Inhibition of L1 Response (peptide 125 µg/ml)” value [4] was 41.6%, the “Percent Inhibition of N-cadherin dependent neurite outgrowth (peptide 250 µg/ml)” value [5] was 68.2% and the “EC50, decrease of electrical resistance across MDCK cell monolayer” value [6] was 270 µM. The “% Inhibition of neurite outgrowth, 250 µg/mL (rat neurons)” value [7] was 65%.
